The values that follow are results of earlier work, collected in PMC12207913.

The term Kd denotes the concentration at which binding is half-saturated.

This series deals with E6AP (Homo sapiens) (UniProt Q05086). In words: SPR. For orientation: In SPR one partner is held on a chip, and binding of the other changes the refractive index at the surface.
Chain of UniProt Q05086 (Q05086 whole entry): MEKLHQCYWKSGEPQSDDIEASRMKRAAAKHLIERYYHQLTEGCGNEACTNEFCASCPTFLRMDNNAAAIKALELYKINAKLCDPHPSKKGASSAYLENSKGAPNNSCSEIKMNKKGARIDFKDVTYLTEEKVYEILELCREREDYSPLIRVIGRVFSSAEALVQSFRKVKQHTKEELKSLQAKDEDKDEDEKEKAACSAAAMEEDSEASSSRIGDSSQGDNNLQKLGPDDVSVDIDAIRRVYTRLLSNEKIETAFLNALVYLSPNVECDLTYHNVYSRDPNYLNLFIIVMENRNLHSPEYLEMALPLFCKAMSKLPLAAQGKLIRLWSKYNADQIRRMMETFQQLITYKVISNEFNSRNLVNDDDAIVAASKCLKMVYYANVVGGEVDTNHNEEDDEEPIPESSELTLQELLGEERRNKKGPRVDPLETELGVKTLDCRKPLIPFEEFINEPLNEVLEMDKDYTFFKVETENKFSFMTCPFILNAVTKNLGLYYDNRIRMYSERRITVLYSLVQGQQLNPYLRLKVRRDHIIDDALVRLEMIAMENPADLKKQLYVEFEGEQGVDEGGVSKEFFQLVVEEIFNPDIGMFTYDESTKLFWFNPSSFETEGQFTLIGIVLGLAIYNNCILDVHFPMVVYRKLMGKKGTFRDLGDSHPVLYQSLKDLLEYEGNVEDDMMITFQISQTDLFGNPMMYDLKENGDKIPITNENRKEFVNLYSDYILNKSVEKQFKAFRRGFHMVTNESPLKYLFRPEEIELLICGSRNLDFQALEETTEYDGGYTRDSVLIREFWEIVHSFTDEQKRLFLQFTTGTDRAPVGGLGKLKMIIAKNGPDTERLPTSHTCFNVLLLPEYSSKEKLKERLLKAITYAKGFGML

For HPV16 E6 (from UniProt P03126), the Kd was 0.144 nM.
